From patent publication US20060058505A1, “Nucleic acid and polypeptide linked to breast cancer and uses therefor” (priority 2001, published 2006) come the findings set out here.

First the molecules themselves.
T1: His-tagged N-terminal SH3 domain containing region of rasGAP^120 (Homo sapiens, UniProt P20936)
T1 construct: containing amino acids 1-356 which includes the full SH3 domain of rasGAP^120; made in house; host or cells: E. coli (DH5), IPTG induction; used as bacterial lysate
T1 sequence (P20936 1-356): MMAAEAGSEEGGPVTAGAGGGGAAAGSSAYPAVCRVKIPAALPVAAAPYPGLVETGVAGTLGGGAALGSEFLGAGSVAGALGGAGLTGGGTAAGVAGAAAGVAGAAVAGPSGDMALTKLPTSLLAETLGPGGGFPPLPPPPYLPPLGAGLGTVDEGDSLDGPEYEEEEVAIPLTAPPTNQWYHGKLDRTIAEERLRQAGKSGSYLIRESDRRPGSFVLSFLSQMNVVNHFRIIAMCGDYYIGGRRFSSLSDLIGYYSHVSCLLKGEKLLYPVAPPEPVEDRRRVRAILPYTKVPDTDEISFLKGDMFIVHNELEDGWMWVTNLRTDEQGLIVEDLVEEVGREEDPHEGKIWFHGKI

B1: full length G3BP-2a: full length G3BP-2a expressed as GST-fusion protein (protein)
chain: MVMEKPSPLLVGREFVRQYYTLLNKAPEYLHRFYGRNSSYVHGGVDASGKPQEAVYGQNDIHHKVLSLNFSECHTKIRHVDAHATLSDGVVVQVMGLLSNSGQPERKFMQTFVLAPEGSVPNKFYVHNDMFRYEDEVFGDSEPELDEESEDEVEEEQEERQPSPEPVQENANSGYYEAHPVTNGIEEPLEESSHEPEPEPESETKTEELKPQVEEKNLEELEEKSTTPPPAEPVSLPQEPPKAFSWASVTSKNLPPSGTVSSSGIPSHVKAPVSQPRVEAKPEVQSQPPRVREQRPRERPGFPPRGPRPGRGDMEQNDSDNRRIIRYPDSHQLFVGNLPHDIDENELKEFFMSFGNVVELRINTKGVGGKLPNFGFVVFDDSEPVQRILIAKPIMFRGEVRLNVEEKKTRAARERETRGGGDDRRDIRRNDRGPGGPRGIVGGGMMRDRDGRGPPPRGGMAQKLGSGRGTGQMEGRFTGQRR
modifications: left off: a dimerising Fc or GST
notes: full length G3BP-2a expressed as GST-fusion protein
B2: δ-2a-N257: GST fusion of truncated G3BP-2a peptide; number is the amino acid at the truncation site (protein, UniProt Q9UN86 1-257, looked up, fragment)
chain: MVMEKPSPLLVGREFVRQYYTLLNKAPEYLHRFYGRNSSYVHGGVDASGKPQEAVYGQNDIHHKVLSLNFSECHTKIRHVDAHATLSDGVVVQVMGLLSNSGQPERKFMQTFVLAPEGSVPNKFYVHNDMFRYEDEVFGDSEPELDEESEDEVEEEQEERQPSPEPVQENANSGYYEAHPVTNGIEEPLEESSHEPEPEPESETKTEELKPQVEEKNLEELEEKSTTPPPAEPVSLPQEPPKAFSWASVTSKNLPPS
modifications: isoform 2a GST fusion
notes: GST fusion of truncated G3BP-2a peptide; number is the amino acid at the truncation site
B3: δ-2a-N146: GST fusion of truncated G3BP-2a peptide including the N-terminal amino acids 1 to 146 (NTF2-like domain) (protein, UniProt Q9UN86 1-146, looked up, fragment)
chain: MVMEKPSPLLVGREFVRQYYTLLNKAPEYLHRFYGRNSSYVHGGVDASGKPQEAVYGQNDIHHKVLSLNFSECHTKIRHVDAHATLSDGVVVQVMGLLSNSGQPERKFMQTFVLAPEGSVPNKFYVHNDMFRYEDEVFGDSEPELD
modifications: isoform 2a GST fusion
B4: δ-2a-N205: GST fusion of truncated G3BP-2a peptide; number is the amino acid at the truncation site (protein, UniProt Q9UN86 1-205, looked up, fragment)
chain: MVMEKPSPLLVGREFVRQYYTLLNKAPEYLHRFYGRNSSYVHGGVDASGKPQEAVYGQNDIHHKVLSLNFSECHTKIRHVDAHATLSDGVVVQVMGLLSNSGQPERKFMQTFVLAPEGSVPNKFYVHNDMFRYEDEVFGDSEPELDEESEDEVEEEQEERQPSPEPVQENANSGYYEAHPVTNGIEEPLEESSHEPEPEPESETK
modifications: isoform 2a GST fusion
notes: as for B2
B5: δ-2a-N329: GST fusion of truncated G3BP-2a peptide; number is the amino acid at the truncation site (protein, UniProt Q9UN86 1-329, looked up, fragment)
chain: MVMEKPSPLLVGREFVRQYYTLLNKAPEYLHRFYGRNSSYVHGGVDASGKPQEAVYGQNDIHHKVLSLNFSECHTKIRHVDAHATLSDGVVVQVMGLLSNSGQPERKFMQTFVLAPEGSVPNKFYVHNDMFRYEDEVFGDSEPELDEESEDEVEEEQEERQPSPEPVQENANSGYYEAHPVTNGIEEPLEESSHEPEPEPESETKTEELKPQVEEKNLEELEEKSTTPPPAEPVSLPQEPPKAFSWASVTSKNLPPSGTVSSSGIPPHVKAPVSQPRVEAKPEVQSQPPRVREQRPRERPGFPPRGPRPGRGDMEQNDSDNRRIIRYPD
modifications: isoform 2a GST fusion
notes: as for B2

The first assay deals with T2, HLA-A*0201 molecule (Homo sapiens, UniProt P04439, D140Y/D185E/D98H/E176V/E277Q/G131W/G231S/I119V/I121R/I166T/I218V/L300P/L318F/N151K/N90K/P208A/P217A/Q86G/Q94H/R138H/R169H/T345S).
T2 construct: endogenous in cells; host or cells: T2 cells
As to the kind of experiment: MHC/peptide binding assay (T2 binding assay). As to conditions: reference influenza MP 58-66 peptide.
As to IMFRGEVRL (human) [Peptide 2], the “binding to the HLA-A*0201 molecule” value was “affinity equal to that of the control influenza MP 58-66 peptide”.

For KLPNFGFVV (Human) [Peptide 1], the “binding to the HLA-A*0201 molecule” value was “affinity equal to that of the control influenza MP 58-66 peptide”.

For the next assay, the system named is peripheral blood mononuclear cells (PBMC) from healthy individuals. As to the kind of experiment: CTL responses induced by DC in PBMC, tested in IFN-γ ELISPOT. The format is cell-based. Conditions: after one (and two) round of stimulation, 2 separate donors. How it is done:
The various peptides were evaluated for the generation of CTL responses induced by DC in peripheral blood mononuclear cells (PBMC) from healthy individuals and tested in ELISPOT (Gonzalez et al, 2000). T2 cells (target) pulsed with Peptide 1 or no peptide were labelled with ^51Cr and incubated with clone IH7 (effector) at various ratios. After 4 hours, ^51Cr released from lysed cells was measured and the percentage of specific lysis calculated with the formula: 100×(experimental release−spontaneous release)/(total release−spontaneous release). Total release was obtained with detergent lysis of labelled target.
Confirming this finding, we generated Peptide 1 specific CTL clones capable of identifying peptide-loaded targets in a classical chromium release assay (FIG. 11), the desired profile for an efficient anti-tumor response (Lopez and Hart, 2002), incorporated herein by reference. These clones will be instrumental in the evaluation of the expression of this antigen in cancer cells, allowing the formal evaluation of this molecule as a TAA.
Take KLPNFGFVV (Human) [Peptide 1]: the “CTL responses: IFN-γ producing peptide specific CD8+ lymphocytes” value was “Strong responses”.

For the next assay, the target named is T1, His-tagged N-terminal SH3 domain containing region of rasGAP^120. As to the kind of experiment: bead binding assay of GST-G3BP peptides with Western detection by anti-His antibody. As to conditions: GST fusions bound to glutathione beads. An excerpt: However, the region within the G3BPs responsible for the observed interaction with rasGAP^120 has not been thoroughly investigated. Initially it was presumed that the interactions would be facilitated through proline rich motifs that are known to interact with SH3 domains (Lee et al. 1996). To further map the interactions between G3BPs and the SH3 domain of rasGAP^120 several GST-G3BP peptide fusions were expressed (FIG. 4) and probed in bead binding assays with His-tagged N-terminal rasGAP^120 peptides. The G3BP peptide constructs were designed to represent truncated proteins containing single or multiple domains as well as peptides that would contain isolated proline rich motifs (FIG. 4). In the assays GST-G3BP peptides are bound to glutathione beads and His-tagged N-terminal rasGAP^120 is added to the different constructs. Specific protein-protein interactions between the G3BP peptides and the SH3 domain of rasGAP^120 are detected by running the bound proteins on a Western blot and identifying His-tagged rasGAP^120 by probing with an anti-His antibody. […] No interactions were detected with the other domains of G3BP including the Acid-Rich domain, the RRM or the RGG-rich domain (FIG. 4).
Truncated cDNAs representing either N-terminal or C-Terminal sequences of G3BP-1 and G3BP-2a (FIG. 2) were subcloned into bacterial GST-fusion expression vectors (pGex, Pharmacia) so that the recombinant fusion proteins could be expressed and used in bead binding assays (see below) to identify the sub-domains of G3BP that interact with the SH3 domain of rasGAP^120. The vectors containing the recombinant fusion protein construct were transformed into competent DH5′ E. Coli and expressed by IPTG induction. To collect the recombinant proteins the cells were washed and resuspended in PBS and sonicated to release the fusion proteins.
The N-terminal domain of rasGAP^120 (kindly provided by Prof. I.G. Macara, University of Virginia) containing amino acids 1-356 which includes the full SH3 domain of rasGAP^120 was subcloned into proEX HT bacterial expression vector (Life Technologies) and expressed as described above.
Glutathione columns (Pharmacia) were blocked overnight at 4° C. in 1× binding buffer A (50 mM HEPES pH 7.4, 100 mM NaCl, 5 mM MgCl2, 50 mg/ml BSA, 1 mM DTT, 1 mM PMFS and protease inhibitors (Protease inhibitor cocktail, Roche Diagnostics, Australia). The following day the columns were washed twice with binding buffer A. Bacterial lysates containing either expressed GST alone or GST fusion proteins were diluted 1:1 with 2× binding buffer A and added to the equilibrated GST columns, the columns were gently rocked overnight at 4° C. To remove excess proteins the columns were washed twice in 1× binding buffer A. Bacterial lysates containing the His-tagged N-terminal of rasGAP^120 protein were combined with an equal volume of 2× binding buffer A containing 200 mg/ml BSA and 0.1% Tween. In addition to the high concentration of BSA, which is used to block non-specific protein-protein interactions, Ethidium bromide was added to a final concentration of 25 ng/ml to abrogate non-specific interactions caused by excess bacterial genomic DNA and bacterial RNA. This mix was then added to the pre-bound GST columns (above) and allowed to bind for 2 hrs at 4° C. The columns were then washed three times with binding buffer B (50 mM HEPES pH 7.4, 200 mM NaCl, 5 mM MgCl2, 1 mM DTT, 1 mM PMFS and protease inhibitors).
One μl of the GST beads complexed with proteins, as described above, was added to an equal volume of 2×PAGE loading dye, heated for 5 mins at 95° C. and loaded onto a 7.5% Polyacrylamide gel and run at 100V for 3 hours. The proteins were transferred to Nitrocellulose and probed with anti-His antibodies (Tetra-His antibody, Qiagen). Columns, which were bound with GST alone, were used as negative controls to ensure no non-specific His-tagged N-terminal rasGAP^120 remained associated with the columns. […]
For “δ-1-N229: GST fusion of truncated G3BP-1 peptide; number is the amino acid at the truncation site”, the “interaction with the N-terminal SH3 domain containing region of rasGAP^120” value (from here on “interaction”) is “interact”.

On to “full length G3BP-1: full length G3BP-1 expressed as GST-fusion protein”, for which the “interaction” value is “interact”.

As to “δ-1-N309: GST fusion of truncated G3BP-1 peptide; number is the amino acid at the truncation site”, the “interaction” value was “interact”.

Turning to B1, the “interaction” value was “interacted”.

B2: the “interaction” value is “interacted”.

As for B3, the “interaction” value was “interacted”.

Take B4: the “interaction” value is “interacted”.

As to B5, the “interaction” value is reported as “interacted”.

The next assay addresses T3, HLA-A*0201 molecule on T2 cells.
T3 construct: whole, on cells
Description: T2 binding assay, HLA expression by flow cytometry.
Conditions: not given
As for KLPNFGFVV [Peptide 1 of G3BP-2 (KLPNFGFVV)], the binding result is recorded as “binds”.

In the case of IMFRGEVRL [Peptide 2 of G3BP-2 (IMFRGEVRL)], the binding result is listed as “binds”.
